Patent US7132505B1, “Polypeptide inhibiting a proton-gated Na+ channel, a nucleic acid coding for such polypeptide and a method of manufacturing an ASIC1a channel blocker” (Centre National de la Recherche Scientifique - CNRS, dated 2006)
No end group written: not given here.

Assays:
[1] = molecular target: ASIC1a channel (homomultimer)
ASIC1a channel [2] = molecular target: T1, ASIC1a channel (Rattus norvegicus, UniProt P55926); experiment: Amiloride block of ASIC1a channel; type: cell-based; conditions: IC50 10 μM versus 0.9 nM
T1 sequence (P55926 1-526): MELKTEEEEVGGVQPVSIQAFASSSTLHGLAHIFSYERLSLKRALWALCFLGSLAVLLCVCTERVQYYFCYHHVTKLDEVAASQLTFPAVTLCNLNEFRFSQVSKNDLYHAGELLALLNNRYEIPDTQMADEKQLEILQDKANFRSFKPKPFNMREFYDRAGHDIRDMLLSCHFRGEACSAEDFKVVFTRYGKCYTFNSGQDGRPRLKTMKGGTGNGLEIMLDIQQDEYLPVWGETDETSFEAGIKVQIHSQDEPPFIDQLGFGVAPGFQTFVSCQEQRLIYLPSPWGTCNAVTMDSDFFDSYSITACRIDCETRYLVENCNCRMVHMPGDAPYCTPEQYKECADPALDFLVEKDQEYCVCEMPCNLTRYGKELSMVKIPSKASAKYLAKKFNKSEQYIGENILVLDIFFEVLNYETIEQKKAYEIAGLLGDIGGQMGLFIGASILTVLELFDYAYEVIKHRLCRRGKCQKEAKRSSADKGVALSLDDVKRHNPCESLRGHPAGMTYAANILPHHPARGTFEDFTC

[3] = tested on: ASIC1a, ASIC1b, ASIC2a, and ASIC3; conditions: cited from earlier work
ASIC1a channel [4] = molecular target: T1, ASIC1a channel; conditions: read-out: IC50 for block of ASIC1a channel; cited from earlier work
[5] = molecular target: ASIC1a channel (homomultimer); remark: listed apart in the source
[6] = molecular target: T2, native PcTX1-sensitive H+-gated channel of rat dorsal root ganglion neurons (suggested by the filing to be a … (rat, UniProt P55926)); experiment: cell-based or functional assay
T2 sequence: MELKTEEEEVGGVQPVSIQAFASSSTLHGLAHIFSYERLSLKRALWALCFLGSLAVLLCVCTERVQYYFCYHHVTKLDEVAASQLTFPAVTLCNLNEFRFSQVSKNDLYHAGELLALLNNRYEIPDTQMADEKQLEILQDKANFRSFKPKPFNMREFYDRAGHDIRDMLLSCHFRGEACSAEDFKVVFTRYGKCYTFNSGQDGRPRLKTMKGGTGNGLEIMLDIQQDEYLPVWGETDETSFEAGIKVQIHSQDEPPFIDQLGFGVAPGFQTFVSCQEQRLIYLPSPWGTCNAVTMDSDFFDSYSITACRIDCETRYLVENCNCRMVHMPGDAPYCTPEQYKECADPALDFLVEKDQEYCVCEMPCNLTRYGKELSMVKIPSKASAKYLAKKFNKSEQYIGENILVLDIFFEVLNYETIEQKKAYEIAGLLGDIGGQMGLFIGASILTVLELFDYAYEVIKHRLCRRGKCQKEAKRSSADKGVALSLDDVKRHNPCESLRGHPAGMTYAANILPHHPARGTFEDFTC

crude Psalmopoeus cambridgei venom (pool or library)
ASIC1a current in Xenopus oocytes [1]: 90%

N=C(N)NC(=O)c1nc(Cl)c(N)nc1N [amiloride]
affinity for ASIC1a relative to PcTX1 (fold lower) (ASIC1a channel [2]): 10^4 | block of transient current generated by ASIC1a, ASIC1b, ASIC2a, and ASIC3 [3]: blocks all transient expression of current | IC50 (ASIC1a channel [4]): 10 µM

EDCIPKWKGCVNRHGDCCEGLECWKRRRSFEVCVPKTPKT-OH (disulfide (positions not given here)) [Psalmotoxin 1 (PcTX1)]
IC50 of block of the ASIC1a current recorded at pH 6 in Xenopus oocytes [5]: 0.9 nM | IC50 of inhibition of the H+-gated current in the PcTX1-sensitive population of DRG neurons [6]: 0.0007 µM
